Measurements taken from paper PMC11867022.

Tested on: S9.6 antibody (anti-DNA-RNA hybrid) (mouse)
Experiment: SPR
Conditions: single-cycle kinetics, pH 7.0, SPR: 10 mM HEPES pH 7.0, 15 mM MgCl2, 80 mM NaCl, S9.6 on CM5 chip, EMSA: 200 nM nucleic acid, 80 ug/mL S9.6, 30 min room temperature, 6% PAGE in 0.5X TBE

Sequence | Kd (ka 5.99e5 1/Ms, kd 1.74e-4 1/s) | Kd
AGTGAATTCTACCAGTGCCATAGAGGAGAGGAGAGGAGGGGAGGTTTACCTCCCCTCCTCTCCTCTCCCTTTGCCTCTCCTCTCCTCCCCTCCGT / UAUGGCACUGGUAGAAUUCACU [Switch A (30% TAT)/miR-183 hybrid] | 0.291 nM | 
AAGAAAAGAGAAGAAGAGAACACCTTCTCTTCTTCTCTTTTCTTAGACCCCTATCACGATTAGCATTAA / UUAAUGCUAAUCGUGAUAGGGGU [Switch B (70% TAT)/miR-155 hybrid] |  | 0.144 nM
